The record followed here is US20050220796A1.

The target in assay [1] is DNA-dependent protein kinase catalytic subunit (DNA-PKcs) (human) (UniProt P78527). The experiment in a line: SPR (Biacore X), scFv amine coupled to a CM-5 chip, purified DNA-PKcs as analyte, 25 C.
For assay [2] the target is unchanged. Description: cell-based or functional assay.

UniProt P78527, sequence (P78527 whole entry): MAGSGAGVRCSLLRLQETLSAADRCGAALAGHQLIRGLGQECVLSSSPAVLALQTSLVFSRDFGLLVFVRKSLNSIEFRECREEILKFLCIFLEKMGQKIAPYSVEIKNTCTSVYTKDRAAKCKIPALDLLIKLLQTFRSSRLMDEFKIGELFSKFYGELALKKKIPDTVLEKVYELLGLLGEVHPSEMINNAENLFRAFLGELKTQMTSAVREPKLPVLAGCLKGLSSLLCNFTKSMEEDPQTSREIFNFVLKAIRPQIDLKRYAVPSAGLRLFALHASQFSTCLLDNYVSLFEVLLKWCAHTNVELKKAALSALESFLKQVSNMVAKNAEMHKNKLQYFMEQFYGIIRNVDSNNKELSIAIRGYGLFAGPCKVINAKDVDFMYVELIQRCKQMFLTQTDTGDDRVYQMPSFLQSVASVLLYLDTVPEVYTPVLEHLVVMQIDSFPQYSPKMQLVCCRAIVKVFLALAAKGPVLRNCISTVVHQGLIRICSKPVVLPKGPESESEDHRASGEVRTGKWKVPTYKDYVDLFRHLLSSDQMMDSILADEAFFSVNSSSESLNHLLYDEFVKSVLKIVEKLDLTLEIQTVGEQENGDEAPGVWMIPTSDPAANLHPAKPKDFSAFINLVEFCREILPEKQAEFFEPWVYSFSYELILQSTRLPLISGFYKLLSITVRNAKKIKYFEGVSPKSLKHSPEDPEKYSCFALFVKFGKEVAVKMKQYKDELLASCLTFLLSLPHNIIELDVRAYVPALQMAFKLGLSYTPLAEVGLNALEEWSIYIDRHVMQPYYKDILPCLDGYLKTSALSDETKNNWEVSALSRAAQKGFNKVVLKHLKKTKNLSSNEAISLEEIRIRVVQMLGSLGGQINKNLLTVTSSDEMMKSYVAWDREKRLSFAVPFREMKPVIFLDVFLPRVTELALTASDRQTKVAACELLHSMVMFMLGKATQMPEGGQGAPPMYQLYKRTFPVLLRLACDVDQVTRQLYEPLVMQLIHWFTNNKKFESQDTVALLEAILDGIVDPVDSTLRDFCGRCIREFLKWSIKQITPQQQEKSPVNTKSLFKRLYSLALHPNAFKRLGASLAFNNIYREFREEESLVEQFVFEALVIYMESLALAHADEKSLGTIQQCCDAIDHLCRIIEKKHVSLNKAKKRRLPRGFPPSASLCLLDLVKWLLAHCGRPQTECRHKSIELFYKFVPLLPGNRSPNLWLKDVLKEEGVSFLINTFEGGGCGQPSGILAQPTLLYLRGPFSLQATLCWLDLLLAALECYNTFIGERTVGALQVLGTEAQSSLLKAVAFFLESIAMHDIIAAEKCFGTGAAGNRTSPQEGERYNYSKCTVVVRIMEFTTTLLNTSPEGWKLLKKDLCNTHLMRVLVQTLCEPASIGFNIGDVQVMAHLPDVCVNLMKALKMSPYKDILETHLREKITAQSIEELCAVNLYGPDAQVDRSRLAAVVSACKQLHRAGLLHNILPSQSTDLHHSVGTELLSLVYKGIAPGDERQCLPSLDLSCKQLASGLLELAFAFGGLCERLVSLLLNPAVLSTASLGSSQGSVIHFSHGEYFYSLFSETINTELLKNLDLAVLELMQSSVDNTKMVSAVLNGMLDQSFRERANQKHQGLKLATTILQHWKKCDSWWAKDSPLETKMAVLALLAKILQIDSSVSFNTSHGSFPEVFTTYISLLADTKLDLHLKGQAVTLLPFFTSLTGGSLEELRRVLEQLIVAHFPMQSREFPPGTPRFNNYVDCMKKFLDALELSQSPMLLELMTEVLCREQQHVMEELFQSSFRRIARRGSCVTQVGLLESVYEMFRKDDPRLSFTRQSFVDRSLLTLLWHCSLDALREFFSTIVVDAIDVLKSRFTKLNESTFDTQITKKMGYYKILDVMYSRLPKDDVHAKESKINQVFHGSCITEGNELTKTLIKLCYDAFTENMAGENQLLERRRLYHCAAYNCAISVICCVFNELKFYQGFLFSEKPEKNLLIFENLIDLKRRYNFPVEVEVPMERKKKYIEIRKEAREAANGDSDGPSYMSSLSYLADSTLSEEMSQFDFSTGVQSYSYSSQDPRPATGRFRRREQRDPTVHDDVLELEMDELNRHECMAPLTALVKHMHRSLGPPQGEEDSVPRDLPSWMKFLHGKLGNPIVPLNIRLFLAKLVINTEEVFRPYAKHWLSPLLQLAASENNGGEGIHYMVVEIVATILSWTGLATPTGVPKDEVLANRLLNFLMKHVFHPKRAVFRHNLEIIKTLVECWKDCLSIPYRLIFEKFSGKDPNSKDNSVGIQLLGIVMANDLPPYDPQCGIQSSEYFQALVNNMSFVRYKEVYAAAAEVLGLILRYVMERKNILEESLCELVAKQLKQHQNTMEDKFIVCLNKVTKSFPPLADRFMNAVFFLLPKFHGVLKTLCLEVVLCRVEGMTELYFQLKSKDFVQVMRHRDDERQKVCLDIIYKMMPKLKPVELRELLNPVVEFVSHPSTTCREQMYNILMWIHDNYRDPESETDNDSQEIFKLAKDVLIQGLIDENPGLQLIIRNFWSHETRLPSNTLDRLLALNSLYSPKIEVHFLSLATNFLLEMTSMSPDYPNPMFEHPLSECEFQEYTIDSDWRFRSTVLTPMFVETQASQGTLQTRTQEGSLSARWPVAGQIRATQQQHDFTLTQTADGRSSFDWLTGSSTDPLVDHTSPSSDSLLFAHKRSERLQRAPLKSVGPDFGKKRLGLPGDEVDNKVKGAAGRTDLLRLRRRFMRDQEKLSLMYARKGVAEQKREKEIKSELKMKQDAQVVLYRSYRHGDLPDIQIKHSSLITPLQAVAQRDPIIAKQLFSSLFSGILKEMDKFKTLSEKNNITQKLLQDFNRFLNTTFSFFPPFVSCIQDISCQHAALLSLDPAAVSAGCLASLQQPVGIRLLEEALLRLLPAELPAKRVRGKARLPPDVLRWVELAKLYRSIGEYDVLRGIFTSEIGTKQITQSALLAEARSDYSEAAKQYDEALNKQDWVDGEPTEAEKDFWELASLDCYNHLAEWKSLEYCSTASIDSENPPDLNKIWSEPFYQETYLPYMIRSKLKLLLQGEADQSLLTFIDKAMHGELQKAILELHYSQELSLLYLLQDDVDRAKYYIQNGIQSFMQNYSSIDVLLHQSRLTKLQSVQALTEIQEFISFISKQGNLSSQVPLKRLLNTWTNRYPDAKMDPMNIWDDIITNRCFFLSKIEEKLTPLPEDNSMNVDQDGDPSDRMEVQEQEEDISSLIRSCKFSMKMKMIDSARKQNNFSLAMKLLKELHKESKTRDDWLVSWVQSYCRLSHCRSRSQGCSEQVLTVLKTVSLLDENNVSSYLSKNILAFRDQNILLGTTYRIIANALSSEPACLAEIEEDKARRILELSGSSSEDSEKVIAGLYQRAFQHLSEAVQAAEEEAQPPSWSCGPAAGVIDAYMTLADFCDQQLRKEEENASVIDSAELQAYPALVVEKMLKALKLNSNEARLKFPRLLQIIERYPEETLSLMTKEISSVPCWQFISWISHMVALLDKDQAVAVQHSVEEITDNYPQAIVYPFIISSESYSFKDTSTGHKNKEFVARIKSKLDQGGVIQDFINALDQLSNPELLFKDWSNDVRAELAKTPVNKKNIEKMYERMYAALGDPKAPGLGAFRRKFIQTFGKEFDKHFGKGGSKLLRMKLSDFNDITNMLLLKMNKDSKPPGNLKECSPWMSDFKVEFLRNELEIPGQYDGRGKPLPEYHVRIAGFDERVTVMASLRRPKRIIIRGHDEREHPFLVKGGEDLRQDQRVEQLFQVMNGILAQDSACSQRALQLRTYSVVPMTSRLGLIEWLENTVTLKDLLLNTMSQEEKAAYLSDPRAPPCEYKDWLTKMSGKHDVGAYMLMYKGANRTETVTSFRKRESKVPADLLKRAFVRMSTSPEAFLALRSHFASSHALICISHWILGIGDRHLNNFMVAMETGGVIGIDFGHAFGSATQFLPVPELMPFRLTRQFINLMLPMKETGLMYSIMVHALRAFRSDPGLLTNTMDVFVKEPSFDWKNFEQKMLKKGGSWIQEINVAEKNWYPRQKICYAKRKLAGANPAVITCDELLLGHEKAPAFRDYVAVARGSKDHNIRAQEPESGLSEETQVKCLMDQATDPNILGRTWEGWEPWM

B1: scFv 18-2 (scFv, V domains shown)
VH: QVKLQESGAELVKPGASVKLSCKAFDYTFTTYDINWIKQRPGQGLWIGWIYPGSGNNKYNEKFKGKATLTADKSSRAAYMHLSSLTSEDSAVYFCAGGPLNMTGFDYWGQGTTVTVSS
VL: DIELTQSPSSMYASLGERVTITCKASQDINSYLSWFQQKPGKSPKTLIYRANRLVDGVPSRFSGSGSGQDYSLTISSLEYEDMGIYYCLQYDELPLTFGAGTKLEIK
Regarding B1, the Kd (commonly the equilibrium constant for the complex coming apart) in assay [1] is 1.4 nM. In assay [2], the decrease in p53 peptide phosphorylation activity was determined as 50%.
